The values below come from paper PMC10501992, “How Pol α-primase is targeted to replisomes to prime eukaryotic DNA replication” (Molecular Cell, 2023).

What all share (experiment): cryo-EM structure; budding yeast replisome: 150 nM CMG on fork DNA (39 nt 3′ flap, 60 nt 5′ flap) with 1.5-fold molar excess of Tof1-Csm3, Mrc1 and Pol α-primase; 25 mM HEPES-NaOH pH 7.6, 150 mM NaOAc, 0.5 mM TCEP, 500 μM AMP-PNP, 10 mM Mg(OAc)2, on ice; 10-30% glycerol gradient with glutaraldehyde and BS3 cross-linkers
Holding throughout (details): both partners purified

In assay [1] the target is T1, Pol1 (budding yeast Pol α catalytic subunit) (S. cerevisiae, UniProt P13382 1-1468).
T1 construct: Pol1, S. cerevisiae; modelled: CTD 1271-1468 and CIP box F140-S149; stood in the assay as a subunit of m1; also called Pol1CTD; Pol1CIP; source: subunit of Pol α-primase from S. cerevisiae strain yAE95, purified as described previously
T1 sequence: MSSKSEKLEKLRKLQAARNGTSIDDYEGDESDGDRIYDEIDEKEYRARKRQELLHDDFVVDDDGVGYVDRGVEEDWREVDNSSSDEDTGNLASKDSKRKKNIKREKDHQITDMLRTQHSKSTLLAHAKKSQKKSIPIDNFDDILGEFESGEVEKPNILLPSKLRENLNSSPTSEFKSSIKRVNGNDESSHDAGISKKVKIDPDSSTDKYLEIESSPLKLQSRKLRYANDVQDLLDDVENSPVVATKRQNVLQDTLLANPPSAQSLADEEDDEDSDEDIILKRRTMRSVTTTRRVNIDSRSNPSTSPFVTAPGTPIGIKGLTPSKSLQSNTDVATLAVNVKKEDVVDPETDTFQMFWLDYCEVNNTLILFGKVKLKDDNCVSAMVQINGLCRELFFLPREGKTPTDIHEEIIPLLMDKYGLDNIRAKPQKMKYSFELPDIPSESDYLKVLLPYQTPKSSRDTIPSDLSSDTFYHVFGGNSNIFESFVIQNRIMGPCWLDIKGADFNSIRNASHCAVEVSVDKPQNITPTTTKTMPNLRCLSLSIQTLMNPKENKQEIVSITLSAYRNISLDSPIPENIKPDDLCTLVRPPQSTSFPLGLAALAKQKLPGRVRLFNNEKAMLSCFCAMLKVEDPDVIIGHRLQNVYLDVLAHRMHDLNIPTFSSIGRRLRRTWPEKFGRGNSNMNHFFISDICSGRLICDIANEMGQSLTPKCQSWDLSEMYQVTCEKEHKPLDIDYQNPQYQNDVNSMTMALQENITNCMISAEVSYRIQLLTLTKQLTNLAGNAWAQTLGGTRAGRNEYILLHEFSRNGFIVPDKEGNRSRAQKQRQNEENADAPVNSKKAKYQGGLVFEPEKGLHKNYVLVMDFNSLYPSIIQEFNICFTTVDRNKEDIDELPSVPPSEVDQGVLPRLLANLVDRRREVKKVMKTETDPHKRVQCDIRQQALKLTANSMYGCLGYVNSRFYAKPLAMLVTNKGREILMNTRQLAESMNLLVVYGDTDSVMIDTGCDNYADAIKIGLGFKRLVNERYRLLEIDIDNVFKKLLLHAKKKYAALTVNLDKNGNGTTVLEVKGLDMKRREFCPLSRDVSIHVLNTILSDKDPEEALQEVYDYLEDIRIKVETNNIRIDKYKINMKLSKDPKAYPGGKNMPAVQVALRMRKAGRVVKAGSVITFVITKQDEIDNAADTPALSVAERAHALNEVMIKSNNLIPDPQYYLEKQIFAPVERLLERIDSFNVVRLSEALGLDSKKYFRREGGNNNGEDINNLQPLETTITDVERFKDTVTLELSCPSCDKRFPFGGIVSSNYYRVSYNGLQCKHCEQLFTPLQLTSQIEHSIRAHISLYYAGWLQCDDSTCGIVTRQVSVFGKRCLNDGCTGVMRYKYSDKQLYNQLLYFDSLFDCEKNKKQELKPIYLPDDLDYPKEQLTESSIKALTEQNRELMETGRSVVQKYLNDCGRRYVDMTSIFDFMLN

The target in assay [2] is T2, Mcm3 (budding yeast) (S. cerevisiae, UniProt P24279 1-971).
T2 construct: Mcm3, S. cerevisiae; stood in the assay as a subunit of m2; source: subunit of CMG from S. cerevisiae strain yJY197, purified as described previously
T2 sequence (P24279 whole entry): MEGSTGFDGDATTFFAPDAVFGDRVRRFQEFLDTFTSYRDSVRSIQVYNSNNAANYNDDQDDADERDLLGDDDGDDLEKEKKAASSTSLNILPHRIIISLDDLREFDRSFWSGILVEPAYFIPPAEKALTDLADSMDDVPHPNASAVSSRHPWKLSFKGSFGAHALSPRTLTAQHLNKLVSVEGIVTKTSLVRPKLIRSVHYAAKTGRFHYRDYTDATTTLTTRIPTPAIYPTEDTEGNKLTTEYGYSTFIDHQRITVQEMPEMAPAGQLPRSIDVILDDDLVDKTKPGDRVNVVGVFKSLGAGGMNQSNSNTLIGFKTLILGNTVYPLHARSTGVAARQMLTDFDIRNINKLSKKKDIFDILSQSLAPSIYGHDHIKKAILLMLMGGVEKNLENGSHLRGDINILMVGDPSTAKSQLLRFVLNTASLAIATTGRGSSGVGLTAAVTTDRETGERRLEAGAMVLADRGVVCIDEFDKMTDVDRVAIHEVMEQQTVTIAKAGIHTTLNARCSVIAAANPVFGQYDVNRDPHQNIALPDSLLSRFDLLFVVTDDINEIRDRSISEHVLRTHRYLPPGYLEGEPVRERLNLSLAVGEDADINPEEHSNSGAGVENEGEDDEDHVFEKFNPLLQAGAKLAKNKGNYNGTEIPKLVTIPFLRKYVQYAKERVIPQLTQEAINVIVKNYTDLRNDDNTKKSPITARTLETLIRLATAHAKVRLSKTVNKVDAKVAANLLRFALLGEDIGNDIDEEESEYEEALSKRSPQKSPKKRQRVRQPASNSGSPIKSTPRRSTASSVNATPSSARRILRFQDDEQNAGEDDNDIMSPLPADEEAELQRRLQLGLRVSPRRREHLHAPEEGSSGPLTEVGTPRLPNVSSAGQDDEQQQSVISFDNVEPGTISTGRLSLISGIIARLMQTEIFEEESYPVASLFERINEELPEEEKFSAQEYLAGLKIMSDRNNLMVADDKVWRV

In assay [3] the target is T3, Pri2 (budding yeast primase accessory subunit) (S. cerevisiae, UniProt P20457 1-528).
T3 construct: Pri2, S. cerevisiae; modelled residues 1-5 (N terminus), 44-177 and 181-299 (NTD); stood in the assay as a subunit of m1; also called Pri2NTD; Pri2_(Nterm); source: subunit of Pol α-primase from S. cerevisiae strain yAE95, purified as described previously
T3 sequence: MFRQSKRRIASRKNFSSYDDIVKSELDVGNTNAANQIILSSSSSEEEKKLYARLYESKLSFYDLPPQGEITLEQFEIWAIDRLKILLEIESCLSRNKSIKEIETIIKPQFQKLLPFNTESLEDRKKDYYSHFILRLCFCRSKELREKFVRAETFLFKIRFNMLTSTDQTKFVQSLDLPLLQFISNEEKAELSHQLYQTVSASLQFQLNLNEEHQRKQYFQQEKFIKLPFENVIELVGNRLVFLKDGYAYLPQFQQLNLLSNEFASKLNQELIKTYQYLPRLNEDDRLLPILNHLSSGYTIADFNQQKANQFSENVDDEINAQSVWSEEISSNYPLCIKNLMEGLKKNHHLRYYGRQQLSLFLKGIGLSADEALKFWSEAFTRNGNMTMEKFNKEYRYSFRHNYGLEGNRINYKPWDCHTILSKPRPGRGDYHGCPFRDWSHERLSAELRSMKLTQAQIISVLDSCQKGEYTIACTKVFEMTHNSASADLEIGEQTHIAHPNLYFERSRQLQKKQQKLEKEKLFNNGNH

B1: Pol12 (budding yeast Pol α accessory subunit) (natural protein, S. cerevisiae)
chain: MSGSIDVITHFGPDADKPEIITALENLTKLHALSVEDLYIKWEQFSNQRRQTHTDLTSKNIDEFKQFLQLQMEKRANQISSSSKVNTSTKKPVIKKSLNSSPLFGLSIPKTPTLKKRKLHGPFSLSDSKQTYNVGSEAETNEKGNSSLKLEFTPGMAEDAVGDSAPLSHAKSSDAKTPGSSTFQTPTTNTPTTSRQNVPAGEILDSLNPENIEISSGNPNVGLLSTEEPSYNQVKVEPFYDAKKYKFRTMRQNLQEASDVLDDQIESFTKIIQNHYKLSPNDFADPTIQSQSEIYAVGRIVPDSPTYDKFLNPESLSLETSRMGGVGRRVRLDLSQVNELSFFLGQIVAFKGKNANGDYFTVNSILPLPYPNSPVSTSQELQEFQANLEGSSLKVIVTCGPYFANDNFSLELLQEFIDSINNEVKPHVLIMFGPFIDITHPLIASGKLPNFPQFKTQPKTLDELFLKLFTPILKTISPHIQTVLIPSTKDAISNHAAYPQASLIRKALQLPKRNFKCMANPSSFQINEIYFGCSNVDTFKDLKEVIKGGTTSSRYRLDRVSEHILQQRRYYPIFPGSIRTRIKPKDVSTKKETNDMESKEEKVYEHISGADLDVSYLGLTEFVGGFSPDIMIIPSELQHFARVVQNVVVINPGRFIRATGNRGSYAQITVQCPDLEDGKLTLVEGEEPVYLHNVWKRARVDLIAS
notes: Pol12, S. cerevisiae; modelled residues 1-79, 203-582 and 604-705; stood in the assay as a subunit of m1; also called Pol12NTD; source: subunit of Pol α-primase from S. cerevisiae strain yAE95, purified as described previously
Turning to B1, the binding result in assay [1] and in assay [2] was “binds” in each case.

B2: Pri1 (budding yeast primase catalytic subunit) (natural protein, S. cerevisiae)
chain: MTNSVKTNGPSSSDMEYYYKSLYPFKHIFNWLNHSPKPSRDMINREFAMAFRSGAYKRYNSFNSVQDFKAQIEKANPDRFEIGAIYNKPPRERDTLLKSELKALEKELVFDIDMDDYDAFRTCCSGAQVCSKCWKFISLAMKITNTALREDFGYKDFIWVFSGRRGAHCWVSDKRARALTDVQRRNVLDYVNVIRDRNTDKRLALKRPYHPHLARSLEQLKPFFVSIMLEEQNPWEDDQHAIQTLLPALYDKQLIDSLKKYWLDNPRRSSKEKWNDIDQIATSLFKGPKQDSHIIKLRECKEDLVLMTLYPKLDVEVTKQTIHLLKAPFCIHPATGNVCVPIDESFAPEKAPKLIDLQTEMEKNNDVSLTALQPFINQFQAYVSSLLKNELGSVKREREDDDEPASLDF
notes: Pri1, S. cerevisiae; modelled aside from its flexible N and C termini; stood in the assay as a subunit of m1; source: subunit of Pol α-primase from S. cerevisiae strain yAE95, purified as described previously
Take B2: the binding result in assay [3] is “binds”.

B3: Psf2 (budding yeast GINS subunit) (natural protein, S. cerevisiae)
chain: MSLPAHLQQTFSPEEIQFIVENEPIKIFPRITTRQKIRGDDRGTGNHTRWQLITTDDKALNNMVAMRSTEVVLWIALLLKQQSKCSIVAPQWLTTKELDRKIQYEKTHPDRFSELPWNWLVLARILFNKAKDDFHDPIHELRGKIQDLREIRQIKVLKGLKYLNESHLQLDNLSLLEINELRPFITEIMDKLREIHTASLTAGTENDEEEFNI
notes: Psf2, subunit of GINS, S. cerevisiae; stood in the assay as a subunit of m2; source: subunit of CMG from S. cerevisiae strain yJY197, purified as described previously
As to B3, the binding result in assay [3] was “binds”.
